In patent US20120184713:

How the values were obtained:
[1] = system: T1, Peptide1, OPN-ASARM peptide (human Osteopontin 115Asp to 132Leu with N-terminal Arg-Lys-Arg)
T1 sequence: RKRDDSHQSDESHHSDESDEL

[2] = system: T2, Peptide3, OPN-ASARM derivative with the three G-CK consensus Ser residues changed to Ala
T2 sequence: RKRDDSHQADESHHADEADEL

[3] = system: T3, Peptide4, OPN-ASARM derivative with the other two Ser residues changed to Ala
T3 sequence: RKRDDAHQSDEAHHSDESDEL

## Casein Kinase I (NEB)
[1]
  in vitro kinase assay with peptide substrate: CKI also phosphorylated OPN-ASARM
[2]
  in vitro kinase assay with peptide substrate: had reduced, but similar levels of activity on both OPN-ASARM^3S-A and OPN-ASARM^2S-A
[3]
  in vitro kinase assay with peptide substrate: had reduced, but similar levels of activity on both OPN-ASARM^3S-A and OPN-ASARM^2S-A
